Read-outs that look alike come from different tables or passages of the source.

The target of series [1] is T1, Human alpha-thrombin (Factor IIa) (Homo sapiens, UniProt P00734;P00734 328-363;364-622). As to the kind of experiment: bead fluorescence binding.
Series [2] addresses T1, Human alpha-thrombin (Factor IIa). As to the kind of experiment: bead fluorescence binding. This is another data set of the same source.

B1: SAM16-16 (SAM16 with gap = 0) (mixed)
DNA 1: ACGTGAGAAGTCCGTGGTAGGGCAGGTTGGGGTGACTTACGACGA
DNA 2: TCTCACGTTCGTCGTA
In turn, B1 registered a Kd in series [1] of 2010 ± 87.3 nM.

B2: SAM16 with gap = 3 (mixed)
DNA 1: B1 DNA 1
DNA 2: TCTCACGTTTTTCGTCGTA
B2 registered a dissociation constant (Kd) in series [1] of 11.6 ± 2.87 nM.

B3: SAM20-20 (mixed)
DNA 1: ACGTGAGAGCAGTCCGTGGTAGGGCAGGTTGGGGTGACTCATACGACGA
DNA 2: GCTCTCACGTTCGTCGTATG
On to B3, for which, in series [1], the binding result is listed as “binds”.

B4: SAM22-22 (mixed)
DNA 1: ACGTGAGAGCAAGTCCGTGGTAGGGCAGGTTGGGGTGACTACATACGACGA
DNA 2: TGCTCTCACGTTCGTCGTATGT
As to B4, in series [1], the binding result was “binds”.

B5: SAM24-24 (mixed)
DNA 1: ACGTGAGAGCAGAGTCCGTGGTAGGGCAGGTTGGGGTGACTGACATACGACGA
DNA 2: CTGCTCTCACGTTCGTCGTATGTC
In series [1], B5 displayed an equilibrium dissociation constant (Kd) of 30.9 ± 5.67 nM.

B6: SAM16-16 with EcoRI site, EcoRI digested (mixed)
DNA 1: AATTCCGAAGTCCGTGGTAGGGCAGGTTGGGGTGACTATCGACGG
DNA 2: TCGG
DNA 3: AATTCCGTCGAT
Molecule B6 displayed a Kd in series [2] of 56.3 ± 5.48 nM.

For the origin of these results see paper doi:10.1101/2022.07.28.501929.
